In FireProtDB (doi:10.1021/bi00435a062):

B1: Tissue-type plasminogen activator, P00750 (parent)
chain: MDAMKRGLCCVLLLCGAVFVSPSQEIHARFRRGARSYQVICRDEKTQMIYQQHQSWLRPVLRSNRVEYCWCNSGRAQCHSVPVKSCSEPRCFNGGTCQQALYFSDFVCQCPEGFAGKCCEIDTRATCYEDQGISYRGTWSTAESGAECTNWNSSALAQKPYSGRRPDAIRLGLGNHNYCRNPDRDSKPWCYVFKAGKYSSEFCSTPACSEGNSDCYFGNGSAYRGTHSLTESGASCLPWNSMILIGKVYTAQNPSAQALGLGKHNYCRNPDGDAKPWCHVLKNRRLTWEYCDVPSCSTCGLRQYSQPQFRIKGGLFADIASHPWQAAIFAKHRRSPGERFLCGGILISSCWILSAAHCFQERFPPHHLTVILGRTYRVVPGEEEQKFEVEKYIVHKEFDDDTYDNDIALLQLKSDSSRCAQESSVVRTVCLPPADLQLPDWTECELSGYGKHEALSPFYSERLKEAHVRLYPSSRCTSQHLLNRTVTDNMLCAGDTRSGGPQANLHDACQGDSGGPLVCLNDGRMTLVGIISWGLGCGQKDVPGVYTKVTNYLDWIRDNMRP

Variants of: B1
Conditions: Homo sapiens, pH 4.5, Thermal, DSC, reversible: yes, structure 1TPK, whole UniProt chain shown
[1] = 64.3 °C, Citric acid trisodium citrate 0.1 M 0.1 M
[2] = Citric acid/trisodium citrate 0.1 M/0.1 M/

V280L
ddG of mutation (higher = less stable) [1]: 1.9 kcal/mol
heat capacity change of unfolding [1]: 0.9 kcal/mol/K
Tm [2]: 55.8 °C
change of melting temperature, mutant - wild type (higher = more stable) [2]: -8.5 °C
unfolding enthalpy (calorimetric) [2]: 70.1 kcal/mol

V280T
ddG of mutation (higher = less stable) [1]: 1 kcal/mol
heat capacity change of unfolding [1]: 0.9 kcal/mol/K
Tm [2]: 60 °C
change of melting temperature, mutant - wild type (higher = more stable) [2]: -4.3 °C
unfolding enthalpy (calorimetric) [2]: 75.1 kcal/mol

V280M
ddG of mutation (higher = less stable) [1]: 2.2 kcal/mol
Tm [2]: 54.4 °C
change of melting temperature, mutant - wild type (higher = more stable) [2]: -9.9 °C
unfolding enthalpy (calorimetric) [2]: 67.8 kcal/mol

V280A
Tm [2]: 55.5 °C
change of melting temperature, mutant - wild type (higher = more stable) [2]: -8.8 °C
unfolding enthalpy (calorimetric) [2]: 72.5 kcal/mol

V280I
ddG of mutation (higher = less stable) [1]: -0.3 kcal/mol
heat capacity change of unfolding [1]: 0.9 kcal/mol/K
unfolding enthalpy (calorimetric) [1]: 67.5 kcal/mol
Tm [2]: 64.8 °C
change of melting temperature, mutant - wild type (higher = more stable) [2]: 0.5 °C
unfolding enthalpy (calorimetric) [2]: 67.5 kcal/mol

V280S
ddG of mutation (higher = less stable) [1]: 2.4 kcal/mol
heat capacity change of unfolding [1]: 0.9 kcal/mol/K
Tm [2]: 52.9 °C
change of melting temperature, mutant - wild type (higher = more stable) [2]: -11.4 °C
unfolding enthalpy (calorimetric) [2]: 63.4 kcal/mol
